This is an account of results in US20170015742A1 (published 2017).

Test [1] addresses T1, recombinant human PDGF-BB (human, UniProt P01127 82-190). The test can be described thus: cell-based or functional assay.
The target in test [2] is T1, recombinant human PDGF-BB. Briefly: competition ELISA: antibody pre-incubated with hPDGF-BB-biotin, then added to coated hPDGF-Rβ-Fc (competitor). The protocol:
(§1) Plates were then washed four times with wash buffer (TBS, 0.05% Tween-20) and blocked with Superblock blocking buffer (Thermo Scientific, cat#37535). During the blocking step, supernatants, antibodies, benchmark compounds or DVD-Ig were diluted in assay diluent (10% Superblock containing 0.05% surfactamps) and an eight point titration of each sample molecule was performed. […] Following incubation, plates were washed four times with wash buffer. Detection reagent Streptavidin-polyHRP-40 (Fitzgerald, cat#65r-s104phrp) was diluted in assay diluent and added to plates (50 μL) for 45 minutes at 25° C. with shaking. Plates were washed four times with wash buffer and developed with the addition of Enhanced K-blue TMB substrate (Neogen, cat#308177). The reaction was stopped with 2N sulfuric acid (VWR, cat# BDH3500-1) and the absorbance was read at 450 nm-570 nm. […] Data was analyzed using Softmax Pro 4.8 software and IC₅₀ values calculated using a sigmoidal dose response (variable slope) fit in GraphPad Prism 5.

Test [3] concerns the target T2, recombinant human VEGF-R2-Fc (R&D Systems cat#357-KD) (human, UniProt P35968 20-764).
T2 construct: Bought reagent; also called hVEGFR2-Fc; hVEGF-R2 (KDR/Flk-1); not shown: Fc part of the bought fusion protein
The test can be described thus: direct binding ELISA on coated recombinant human VEGF-R2-Fc (Example 1.22). The protocol:
Plates were then washed four times with wash buffer (TBS, 0.05% Tween-20) and blocked with Superblock blocking buffer (Thermo Scientific, cat#37535). […] Following incubation, plates were washed four times with wash buffer. […] Plates were washed four times with wash buffer and developed with the addition of Enhanced K-blue TMB substrate (Neogen cat#308177). The reaction was stopped with 2N sulfuric acid (VWR, cat# BDH3500-1) and the absorbance was read at 450 nm-570 nm. […] Data was analyzed using Softmax Pro 4.8 software and IC₅₀ values calculated using a sigmoidal dose response (variable slope) fit in GraphPad Prism 5.

Test [4] has as its target T3, recombinant human PDGF-Rβ-Fc (R&D Systems #385-PR) (human, UniProt P09619 33-530).
T3 construct: Bought reagent; also called hPDGFRβ-Fc; huPDGF Rβ; not shown: Fc part of the bought fusion protein
The test can be described thus: competition ELISA: antibody on coated hPDGFRβ-Fc against hPDGF-BB-biotin (Example 1.27). As for the experimental part: (§2) Plates were then washed four times with wash buffer (TBS, 0.05% Tween-20) and blocked with Superblock blocking buffer (Thermo Scientific, cat#37535). During the blocking step, supernatants, antibodies and benchmark compounds were diluted in assay diluent (10% Superblock containing 0.05% surfactamps) and an eight point titration of each sample molecule was performed. The samples were added to wells and incubated for 30 minutes at 25° C. with shaking. […] This was added to wells (10 ng/mL/3.97E-10 M final concentration) and incubation was continued for 35 minutes at 25° C. with shaking. Following incubation, plates were washed four times with wash buffer. Detection reagent Streptavidin-polyHRP-40 (Fitzgerald, cat#65r-s104phrp) was diluted in assay diluent and added to plates (50 μL) for 45 minutes at 25° C. with shaking. Plates were washed four times with wash buffer and developed with the addition of Enhanced K-blue TMB substrate (Neogen, cat#308177). The reaction was stopped with 2N sulfuric acid (VWR, cat# BDH3500-1) and the absorbance was read at 450 nm-570 nm. […] Data was analyzed using Softmax Pro 4.8 software and IC₅₀ values calculated using a sigmoidal dose response (variable slope) fit in GraphPad Prism 5.

The target in test [5] is T4, recombinant human PDGF-Rβ-Fc (human, UniProt P09619 33-530).
T4 construct: also called hPDGFRβ-Fc; hPDGF-Rβ; not shown: Fc part of the bought fusion protein
T4 sequence (P09619 33-530 limits assumed): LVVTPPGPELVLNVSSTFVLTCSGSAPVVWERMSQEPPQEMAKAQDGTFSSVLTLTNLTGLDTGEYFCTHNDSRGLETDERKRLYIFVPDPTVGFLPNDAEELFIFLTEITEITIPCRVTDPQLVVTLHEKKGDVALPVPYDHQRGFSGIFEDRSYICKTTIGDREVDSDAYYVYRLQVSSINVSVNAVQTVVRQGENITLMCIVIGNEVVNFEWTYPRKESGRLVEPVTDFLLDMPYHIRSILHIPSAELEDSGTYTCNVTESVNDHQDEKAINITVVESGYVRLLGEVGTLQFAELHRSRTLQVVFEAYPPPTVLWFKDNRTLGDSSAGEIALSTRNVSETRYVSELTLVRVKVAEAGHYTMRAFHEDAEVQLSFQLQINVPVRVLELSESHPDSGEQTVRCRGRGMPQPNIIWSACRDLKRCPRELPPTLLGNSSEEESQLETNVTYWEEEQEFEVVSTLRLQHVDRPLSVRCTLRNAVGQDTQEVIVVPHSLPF
Briefly: competition ELISA: antibody added to coated hPDGF-Rβ-Fc, then hPDGF-BB-biotin (competitor). The protocol:
as §2

The target in test [6] is T5, recombinant human PDGF-BB (human, UniProt P01127 82-190, biotin-labelled in the binding and competition ELISAs (sites not given)).
T5 construct: Bought protein (CST cat#8912BF) in the ELISAs and cell assays; purified recombinant PDGF-BB in Biacore; also called huPDGF-BB; hPDGF-BB
T5 sequence (P01127 82-190 limits assumed): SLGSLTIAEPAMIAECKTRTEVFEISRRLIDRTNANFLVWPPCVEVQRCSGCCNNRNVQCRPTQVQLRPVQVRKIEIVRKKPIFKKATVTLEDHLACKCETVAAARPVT
Briefly: receptor competition ELISA: antibody pre-incubated with biotin-hPDGF-BB, binding to coated hPDGF-Rβ-Fc. As for the experimental part:
as §1

Test [7] deals with T5, recombinant human PDGF-BB. Briefly: Biacore SPR, antibody captured by anti-human Fc, PDGF-BB injected. The protocol: For example, approximately 9000 RU of goat anti-human Fc specific polyclonal antibody (Thermo Fisher Scientific Inc., Rockford, Ill.) diluted in 10 mM sodium acetate (pH 4.5) is directly immobilized across a CM5 research grade biosensor chip using a standard amine coupling kit according to manufacturer's instructions and procedures at 25 μg/ml. Unreacted moieties on the biosensor surface were blocked with ethanolamine. For kinetic analysis, rate equations derived from the 1:1 Langmuir binding model were fitted simultaneously to multiple antigen injections (using global fit analysis) with the use of Scrubber 2 (BioLogic Software), Biacore Biaevaluation 4.0.1 software or Biacore T100 Evaluation software. Purified antibodies or DVD-Ig molecules were diluted in running buffer for capture across goat anti-human Fc reaction surfaces. Antibodies or DVD-Ig molecules to be captured as a ligand (1 μg/ml) were injected over reaction matrices at a flow rate of 10 μl/minute. During the assay, all measurements were referenced against the capture surface alone (i.e., with no captured antibody or DVD-Ig molecule). […] The equilibrium dissociation constant KD (M) of the reaction between antibodies and the target antigen was then calculated from the kinetic rate constants by the following formula: KD=Koff/Kₒₙ. Binding was recorded as a function of time and kinetic rate constants were calculated.

In test [8] the target is T5, recombinant human PDGF-BB. Briefly: direct binding ELISA, biotin-hPDGF-BB on neutravidin plates, antibody titrated. As for the experimental part:
Plates were then washed four times with wash buffer (TBS, 0.05% Tween-20). The sample molecule titration was added to the coated plate at 50 μL in duplicate and incubated for one hour at 25° C. with shaking. Following incubation, plates were washed four times with wash buffer. The appropriate anti-species-IgG HRP conjugate was in assay diluent (10% Superblock containing 0.05% surfactamps) and added to plates (50 μL) for one hour at 25° C. with shaking. Plates were washed four times with wash buffer and developed with the addition of Enhanced K-blue TMB substrate (Neogen, cat#308177). The reaction was stopped with 2N sulfuric acid (VWR, cat# BDH3500-1) and the absorbance was read at 450 nm-570 nm. […] Data was analyzed using Softmax Pro 4.8 software and IC₅₀ values calculated using a sigmoidal dose response (variable slope) fit in GraphPad Prism 5.

The target in another test is recombinant rat PDGF-BB (rat, UniProt Q05028 74-182). The test can be described thus: cell-based or functional assay.
Sequence of recombinant rat PDGF-BB (Q05028 74-182 limits assumed): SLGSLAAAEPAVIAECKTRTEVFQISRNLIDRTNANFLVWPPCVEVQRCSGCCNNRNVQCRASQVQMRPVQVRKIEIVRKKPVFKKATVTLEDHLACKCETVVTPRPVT
Test [9] deals with T5, recombinant human PDGF-BB. The test can be described thus: cell-based or functional assay.

Substitutions are numbered along the chain they refer to.

T1 sequence (P01127 82-190 limits assumed): as the sequence (P01127 82-190 limits assumed) above
T3 sequence (P09619 33-530 limits assumed): as the sequence (P09619 33-530 limits assumed) above
T2 sequence (P35968 20-764 limits assumed): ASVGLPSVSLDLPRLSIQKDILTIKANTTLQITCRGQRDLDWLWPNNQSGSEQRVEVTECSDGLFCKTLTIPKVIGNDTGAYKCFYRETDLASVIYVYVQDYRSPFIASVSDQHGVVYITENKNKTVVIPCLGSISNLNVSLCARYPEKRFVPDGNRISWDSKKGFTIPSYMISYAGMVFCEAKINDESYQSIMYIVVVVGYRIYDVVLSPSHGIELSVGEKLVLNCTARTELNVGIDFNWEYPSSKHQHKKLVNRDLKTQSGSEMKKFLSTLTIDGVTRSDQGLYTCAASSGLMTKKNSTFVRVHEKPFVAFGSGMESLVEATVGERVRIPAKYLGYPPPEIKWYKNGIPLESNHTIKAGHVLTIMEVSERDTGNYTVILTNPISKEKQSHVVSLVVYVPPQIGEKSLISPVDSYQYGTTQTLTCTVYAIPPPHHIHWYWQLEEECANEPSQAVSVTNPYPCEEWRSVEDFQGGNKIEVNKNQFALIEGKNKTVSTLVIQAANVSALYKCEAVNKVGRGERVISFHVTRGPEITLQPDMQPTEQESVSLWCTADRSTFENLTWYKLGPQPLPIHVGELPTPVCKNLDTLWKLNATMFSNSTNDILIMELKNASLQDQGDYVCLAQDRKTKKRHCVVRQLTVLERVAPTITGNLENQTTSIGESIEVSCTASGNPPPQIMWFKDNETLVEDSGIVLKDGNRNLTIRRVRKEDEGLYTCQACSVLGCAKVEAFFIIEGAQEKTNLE

B1: hBDI-9E8.4 (antibody, V domains shown)
VH: EVTLRESGPALVKPTQTLTLTCTFSGFSLSTYGMGVGWIRQPPGKALEWLANIWWDDDKYYNPSLKNRLTISKDTSKNQVVLTMTNMDPVDTATYYCARIESIGTTYSFDYWGQGTMVTVSS
VL: EFVLTQSPGTLSLSPGERATLSCERSSGDIGDSYVSWYQQKPGQAPRLVIYADDQRPSGIPDRFSGSGSGTDFTLTISRLEPEDFAVYYCQSYDINIDIVFGGGTKVEIK
notes: Humanized IgG from pHybE expression vectors, made in HEK293 6E and protein A purified; also called h9E8.4
For B1, the “hPDGF-BB IC50 (nM), hPDGF-BB-induced NIH-3T3 cell proliferation” value in test [1] was found to be 0.061 nM. In addition, the 50% inhibitory concentration (IC50) in [2] was determined as 4.3 nM.

B2: BCU-3D6-C9 (antibody, V domains shown)
VH: QIQLVQSGPELKKPGESVKISCKASEYTFTDYAIHWVKQAPGKGLKWMGWINTYTGKPTYADDFKGRFVFSLEASASTANLQISNLKNEDTATYFCARDYGGYGERRDYFDYWGQGVMVTVSS
VL: DIQMTQSPASLSASLGETVTIECRVSEDIYNGLAWYQQKPGKSPQFLIYNANRLHTGVPSRFSGSGSGTQFSLKINSLQSEDVANYFCQQYYDYPLTFGSATKLEIK
notes: Rat hybridoma anti-human VEGFR II monoclonal antibody
For the molecule B2, in test [3], the binding result is “binds”.

B3: BDE-3C9-G4 (antibody, V domains shown)
VH: EVQLVESGGGLVQPGRSLKLSCAASGFTFSNYGMAWVRQAPTQGLEWVASITNSGGNTYYRDSVKGRFTISRDSAKNTQYLQMDSLRSEDTATYFCARHTPGANYFDYWGQGLMVTVSS
VL: DIQMTQSPPSLSASLGEKVTITCQASQSIKNYIAWYQLKPGTAPRLLMRYTSTLESGTPSRFSGSGSGRDYSFSISNVESEDIASYYCVQYANLYTFGGGTKLELK
notes: Rat hybridoma anti-human PDGFR-B monoclonal antibody, isotype IgG2b/κ
For the molecule B3, the IC50 in test [4] was 0.832 nM.

B4: hBDE-3C9.1 (antibody, V domains shown)
VH: B3 VH with R16G, K19R, T42G, Q43K, S74N, D84N, S88A, T93V, L113T
VL: DIQMTQSPSSLSASVGDRVTITCQASQSIKNYIAWYQLKPGKAPRLLMRYTSTLESGTPSRFSGSGSGRDYTFTISSLQPEDIATYYCVQYANLYTFGGGTKVEIK
notes: Humanized anti-human PDGFR-B IgG from pHybE expression vectors
Regarding B4, the IC50 in [5] is 0.217 nM.

B5: hBDE-3C9.2 (antibody, V domains shown)
VH: EVQLVESGGGLVQPGGSLRLSCAASGFTFSNYGMAWVRQAPGKGLEWVASITNSGGNTYYRDSVKGRFTISRDNAKNSLYLQMNSLRAEDTAVYYCARHTPGANYFDYWGQGTMVTVSS
VL: B4 VL with L38Q, M48I, T58V
notes: as for B4
In the case of B5, the IC50 in [5] is 0.26 nM.

B6: BDE-4F2-D4 (antibody, V domains shown)
VH: QVQLKESGPGLMQPSQTLSLTCTVSGFSLTNYGVSWVRQFPGKGLEWIAAISSGGSTYYNSALKSRLSISRDTSRSQVFLKMNSLLTEDTAFYFCTRVYYGSNYFDYWGPGVMVTVSS
VL: DIVMTQTPSSQAVSAGEKVTMSCKSSQSLLYGGDQKNFLAWYQQKPGQSPKLLIYLASTRESGVPDRFIGSGSGTDFTLTISSVQAEDLADYYCQQHYGYPFTFGSGTKLEIK
notes: Rat hybridoma anti-human PDGFR-B monoclonal antibody, isotype IgG2a/κ
As for B6, in test [4], the IC50 amounted to 0.527 nM.

B7: chBDI-9E8 (antibody, V domains shown)
VH: QVTLKESGPGILQPSQTLSLTCTFSGFSLSTYGMGVGWIRQPSGKGLEWLANIWWDDDKYYNPSLKNRLTISKDTSNNQAFLKITNVDTADTATYYCARIESIGTTYSFDYWGQGVMVTVSS
VL: QFTLTQPKSVSGSLRSTITIPCERSSGDIGDSYVSWYQQHLGRPPINVIYADDQRPSEVSDRFSGSIDSSSNSASLTITNLQMDDEADYFCQSYDINIDIVFGGGTKLTVL
notes: also called chimeric BDI-9E8-E7
Turning to B7, the IC50 in test [6] worked out at 0.791 nM. In test [7], the Kd is at most 0.012 nM, the koff turned out to be 0.00012 s⁻¹ and the kon is at least 1e+07 M⁻¹ s⁻¹. Further, in test [8], the EC50 was 0.38 nM. Besides, in the test with recombinant rat PDGF-BB, the “ratPDGF-BB Neutralization Potency (nM) in NIH-3T3 Cells” value is 0.075 nM. For the same molecule, the “huPDGF-BB Neutralization Potency (nM) in NIH-3T3 Cells” value in test [9] was determined as 0.058 nM.

B8: chBDI-5H1 (antibody, human IgG1, V domains shown)
VH: QVTLKESGPGILQPSQTLSLTCTFSGFSLSTFGMGVGWIRQPSGKGLEWLANIWWDDDKYYNPSLKNRLTISKDTSNSQAFLEITNVDTADTATYYCARISTGISSYYVMDAWGQGASVTVSS
VL: B7 VL with S32T, A51G, D52N, I96S, N97D
notes: also called chimeric BDI-5H1-F6
For the molecule B8, the IC50 in [6] turned out to be 1.04 nM. In test [7], the Kd is at most 0.015 nM, the koff was 0.00015 s⁻¹ and the kon was at least 1e+07 M⁻¹ s⁻¹. Besides, in test [8], the EC50 came out at 0.12 nM. For the same molecule, the “ratPDGF-BB Neutralization Potency (nM) in NIH-3T3 Cells” value with recombinant rat PDGF-BB was found to be 0.17 nM. For the same molecule, the “huPDGF-BB Neutralization Potency (nM) in NIH-3T3 Cells” value in test [9] came out at 0.275 nM.

B9: hBDI-9E8.11 (antibody, V domains shown)
VH: EVQLVESGGGLVQPGGSLRLSCAFSGFSLSTYGMGVGWIRQAPGKGLEWLANIWWDDDKYYNPSLKNRLTISKDTSKNQAYLQINSLRAEDTAVYYCARIESIGTTYSFDYWGQGTLVTVSS
VL: DFVLTQSPDSLAVSLGERATINCERSSGDIGDSYVSWYQQKPGQPPKNVIYADDQRPSGVPDRFSGSGSGNSASLTISSLQAEDVAVYFCQSYDINIDIVFGGGTKVEIK
notes: Humanized IgG from pHybE expression vectors, made in HEK293 6E and protein A purified
Consider B9, for which, in test [1], the “hPDGF-BB IC50 (nM), hPDGF-BB-induced NIH-3T3 cell proliferation” value is 0.309 nM. Besides, the IC50 in test [2] was found to be 1.73 nM.

B10: BCU-7A6-C2 (antibody, V domains shown)
VH: EVQLVESGGGLVQPRGSLKLSCAASGFDFNSYGMSWVRQAPGKGLDLVADISSKSYNYATYYADSVKDRFTISRDDSQSMVYLQMDNLKTEDTALYYCTESLELGGAYWGQGTLVTVSS
VL: DIQMTQSPPSLSASLGDEVTITCQASQNINKFIAWYQQKPGKAPRLLIRYTSTLKSGTPSRFSGSGSGRDYSFSISNVESEDIASYYCLQYDSLPWTFGGGTKLELK
notes: Rat hybridoma anti-human VEGFR II monoclonal antibody, isotype IgG2b/κ
In the case of B10, the binding result in test [3] is on record as “binds”.
